Assay results as given in article PMC4854314, “RNA protects a nucleoprotein complex against radiation damage” (Acta Crystallographica. Section D, Structural Biology, 2016).

Biological target: the molecule itself
Test: crystal structure; TRAP-RNA crystals, hanging drop, 2:1 molar ratio of TRAP to RNA, 70 mM potassium phosphate pH 7.8, 10 mM L-tryptophan; data collected at 100 K, 1.98 Å; asymmetric unit holds one RNA-bound and one non-RNA-bound TRAP ring

B1: trp RNA-binding attenuation protein (TRAP) from B. stearothermophilus (natural protein)
chain: MYTNSDFVVIKALEDGVNVIGLTRGADTRFHHSEKLDKGEVLIAQFTEHTSAIKVRGKAYIQTRHGVIESEGKK
notes: construct as in Hopcroft et al., 2002 (PDB 1gtf); 11 identical subunits form a ring; also called TRAP ring; source: overexpressed in Escherichia coli and purified; copies: 11
- stoichiometry N: 11
